Laboratory results taken from article PMC3028594 (DNA repair, 2010).

B1: C-terminal (endonuclease) domain of Bacillus subtilis MutL (domain or fragment, UniProt P49850 433-627, looked up)
chain: SDRVPIMYPIGQMHGTYILAQNENGLYIIDQHAAQERIKYEYFREKVGEVEPEVQEMIVPLTFHYSTNEALIIEQHKQELESVGVFLESFGSNSYIVRCHPAWFPKGEEAELIEEIIQQVLDSKNIDIKKLREEAAIMMSCKGSIKANRHLRNDEIKALLDDLRSTSDPFTCPHGRPIIIHHSTYEMEKMFKRVM
B2: C-terminal domain of Escherichia coli MutL (domain or fragment, UniProt P23367 432-615, looked up)
chain: SQSFGRVLTIVHSDCALLERDGNISLLSLPVAERWLRQAQLTPGEAPVCAQPLLIPLRLKVSAEEKSALEKAQSALAELGIDFQSDAQHVTIRAVPLPLRQQNLQILIPELIGYLAKQSVFEPGNIAQWIARNLMSEHAQWSMAQAITLLADVERLCPQLVKTPPGGLLQSVDLHPAIKALKDE
B3: Bacillus subtilis β sliding clamp (β subunit of DNA polymerase III) (natural protein, UniProt P05649 1-378, looked up)
chain: MKFTIQKDRLVESVQDVLKAVSSRTTIPILTGIKIVASDDGVSFTGSDSDISIESFIPKEEGDKEIVTIEQPGSIVLQARFFSEIVKKLPMATVEIEVQNQYLTIIRSGKAEFNLNGLDADEYPHLPQIEEHHAIQIPTDLLKNLIRQTVFAVSTSETRPILTGVNWKVEQSELLCTATDSHRLALRKAKLDIPEDRSYNVVIPGKSLTELSKILDDNQELVDIVITETQVLFKAKNVLFFSRLLDGNYPDTTSLIPQDSKTEIIVNTKEFLQAIDRASLLAREGRNNVVKLSAKPAESIEISSNSPEIGKVVEAIVADQIEGEELNISFSPKYMLDALKVLEGAEIRVSFTGAMRPFLIRTPNDETIVQLILPVRTY
B4: regulatory subdomain of Bacillus subtilis MutL (domain or fragment, UniProt P49850 471-574, looked up)
chain: KYEYFREKVGEVEPEVQEMIVPLTFHYSTNEALIIEQHKQELESVGVFLESFGSNSYIVRCHPAWFPKGEEAELIEEIIQQVLDSKNIDIKKLREEAAIMMSCK
B5: regulatory subdomain of Escherichia coli MutL (domain or fragment, UniProt P23367 466-569, looked up)
chain: WLRQAQLTPGEAPVCAQPLLIPLRLKVSAEEKSALEKAQSALAELGIDFQSDAQHVTIRAVPLPLRQQNLQILIPELIGYLAKQSVFEPGNIAQWIARNLMSEH

Legend:
Assay in all cases: cross-linking
[1] = biological target: the molecule itself
[2] = biological target: Escherichia coli β sliding clamp (β subunit of DNA polymerase III) (Escherichia coli, UniProt P0A988 1-366)
Chain of Escherichia coli β sliding clamp (β subunit of DNA polymerase III) (P0A988 whole entry): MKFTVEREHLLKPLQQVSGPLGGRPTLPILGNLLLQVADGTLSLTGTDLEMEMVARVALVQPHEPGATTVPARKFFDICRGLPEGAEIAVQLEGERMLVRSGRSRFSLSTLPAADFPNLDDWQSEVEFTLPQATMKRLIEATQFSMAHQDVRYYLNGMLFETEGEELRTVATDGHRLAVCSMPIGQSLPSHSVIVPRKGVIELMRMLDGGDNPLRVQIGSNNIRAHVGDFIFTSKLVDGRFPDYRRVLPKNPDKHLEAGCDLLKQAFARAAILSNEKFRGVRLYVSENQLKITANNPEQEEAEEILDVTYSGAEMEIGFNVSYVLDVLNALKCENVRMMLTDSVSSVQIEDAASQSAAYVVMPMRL

[3] = biological target: B3

B1
stoichiometry N [1]: 2 | binding result [2]: binds

B2
binding result [3]: binds | stoichiometry N [1]: ≥ 2

B3
stoichiometry N [1]: 2

B4
binding result [3]: binds

B5
binding result [2]: binds
